# According to publication PMC10786891, “Massively parallel profiling of RNA-targeting CRISPR-Cas13d”:
# Where a chain is given by its changes, count along the chain named. Names and notes keep the numbering of the source.
# T1: EsCas13d, nuclease-dead (Eubacterium siraeum, UniProt B0MS50, R295A;H300A;R849A;H854A)
# T1 sequence: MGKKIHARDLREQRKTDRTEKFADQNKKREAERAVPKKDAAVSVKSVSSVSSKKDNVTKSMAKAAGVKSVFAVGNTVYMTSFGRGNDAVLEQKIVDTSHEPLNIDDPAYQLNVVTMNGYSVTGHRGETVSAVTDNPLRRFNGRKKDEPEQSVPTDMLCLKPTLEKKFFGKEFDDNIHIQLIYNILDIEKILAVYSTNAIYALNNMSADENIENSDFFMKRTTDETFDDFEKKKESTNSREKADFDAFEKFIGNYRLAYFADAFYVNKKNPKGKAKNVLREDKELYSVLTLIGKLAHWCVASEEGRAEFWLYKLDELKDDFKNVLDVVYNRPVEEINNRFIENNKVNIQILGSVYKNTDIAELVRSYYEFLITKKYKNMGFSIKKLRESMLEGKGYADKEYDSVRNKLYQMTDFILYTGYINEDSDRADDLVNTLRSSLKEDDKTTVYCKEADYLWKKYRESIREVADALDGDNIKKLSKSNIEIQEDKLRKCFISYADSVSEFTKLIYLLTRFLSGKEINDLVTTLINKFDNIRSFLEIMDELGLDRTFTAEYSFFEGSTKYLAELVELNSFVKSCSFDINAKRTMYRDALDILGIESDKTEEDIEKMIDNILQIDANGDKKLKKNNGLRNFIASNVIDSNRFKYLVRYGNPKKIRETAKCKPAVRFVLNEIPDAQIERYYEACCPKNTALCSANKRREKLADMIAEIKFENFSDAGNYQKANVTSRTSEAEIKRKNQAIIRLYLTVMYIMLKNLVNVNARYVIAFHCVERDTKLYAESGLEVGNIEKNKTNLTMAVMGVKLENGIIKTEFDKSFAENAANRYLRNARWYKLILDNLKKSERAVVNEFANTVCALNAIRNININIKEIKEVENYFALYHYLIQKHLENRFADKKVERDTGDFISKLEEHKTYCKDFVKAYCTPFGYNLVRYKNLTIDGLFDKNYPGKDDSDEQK
# B1: target 1 U10G,G12C (mixed)
# RNA 1: CACCCGUGCAAAAAUGCAGGGGUCUAAAACUGAGCGGAUAACCUCUCUAUGG
# RNA 2: GGGAAUGGAUCCACAUCUACGAAUUCGUACCAUAGAGAGCUGAUCCGCUCACCGAGAUCGGAAGAGCACACGU
# B2: target 1 U3C,C4U (mixed)
# RNA 1: B1 RNA 1
# RNA 2: B1 RNA 2 with C40G, G42U, C48U, U49C
# B3: target 1 U8G,C21U (mixed)
# RNA 1: B1 RNA 1
# RNA 2: B1 RNA 2 with C31U, C40G, G42U, U44G
# B4: target 1 insU 3' of 21,insU 3' of 12 (mixed)
# RNA 1: B1 RNA 1
# RNA 2: GGGAAUGGAUCCACAUCUACGAAUUCGUACCUAUAGAGAGGUUUAUCCGCUCACCGAGAUCGGAAGAGCACACGU
# B5: target 1 insG 3' of 9,insU 3' of 5 (mixed)
# RNA 1: B1 RNA 1
# RNA 2: GGGAAUGGAUCCACAUCUACGAAUUCGUACCAUAGAGAGGUUAGUCCGUCUCACCGAGAUCGGAAGAGCACACGU
# B6: target 1 insC 3' of 15,insA 3' of 6 (mixed)
# RNA 1: B1 RNA 1
# RNA 2: B5 RNA 2 with A38C, G39A, U41G, A43U, G44A, G48A, U49G
# B7: target 1 A9G,C22U (mixed)
# RNA 1: B1 RNA 1
# RNA 2: B1 RNA 2 with C30U, C40G, G42U, A43G
# B8: target 1 insC 3' of 20,insC 3' of 12 (mixed)
# RNA 1: B1 RNA 1
# RNA 2: B4 RNA 2 with U32A, A33C, U42C
# B9: target 1 A1G,C7A (mixed)
# RNA 1: B1 RNA 1
# RNA 2: B1 RNA 2 with C40G, G42U, C45A, A51G
# B10: target 1 insA 3' of 12,insA 3' of 12 (mixed)
# RNA 1: B1 RNA 1
# RNA 2: B5 RNA 2 with U41A, U42A, A43U, G44U, U45A, C46U, G48C, U49G
# B11: target 1 U3C,G13C (mixed)
# RNA 1: B1 RNA 1
# RNA 2: B1 RNA 2 with G39C, C40G, G42U, U49C
# B12: target 1 insC 3' of 19,insA 3' of 8 (mixed)
# RNA 1: B1 RNA 1
# RNA 2: B4 RNA 2 with U32A, A33U, U34C, U44A, A45U, U46A
# B13: target 1 insC 3' of 14,insU 3' of 6 (mixed)
# RNA 1: B1 RNA 1
# RNA 2: B5 RNA 2 with G39C, U41G, A43U, G44A, G48U, U49G
# B14: target 1 insC 3' of 20,insA 3' of 19 (mixed)
# RNA 1: B1 RNA 1
# RNA 2: B4 RNA 2 with U32A, A33C, G36A, A37G, G38A, A39G, G40A, U42G
# B15: target 1 insC 3' of 13,insA 3' of 5 (mixed)
# RNA 1: B1 RNA 1
# RNA 2: B5 RNA 2 with G40C, U41G, A43U, G44A, U49A
# B16: target 1 U8A,G12A (mixed)
# RNA 1: B1 RNA 1
# RNA 2: B1 RNA 2 with C40A, G42U, U44A
# B17: target 1 insC 3' of 8,insA 3' of 4 (mixed)
# RNA 1: B1 RNA 1
# RNA 2: B5 RNA 2 with G44U, U45C, U49C, C50A
# B18: target 1 insA 3' of 15,insA 3' of 6 (mixed)
# RNA 1: B1 RNA 1
# RNA 2: B5 RNA 2 with G39A, U41G, A43U, G44A, G48A, U49G
# B19: target 1 insU 3' of 21,insA 3' of 13 (mixed)
# RNA 1: B1 RNA 1
# RNA 2: B4 RNA 2 with G41A, U42G
# B20: target 1 insA 3' of 11,insC 3' of 5 (mixed)
# RNA 1: B1 RNA 1
# RNA 2: B5 RNA 2 with U42A, A43U, G44A, U49C
# B21: target 1 insA 3' of 13,insC 3' of 8 (mixed)
# RNA 1: B1 RNA 1
# RNA 2: B5 RNA 2 with G40A, U41G, A43U, G44A, G48C, U49G
# B22: target 1 U11A,G13C (mixed)
# RNA 1: B1 RNA 1
# RNA 2: B1 RNA 2 with G39C, C40G, U41A, G42U
# B23: target 1 C4A,U11C (mixed)
# RNA 1: B1 RNA 1
# RNA 2: B1 RNA 2 with C40G, U41C, G42U, C48A
# B24: target 1 complement block 6-11 (mixed)
# RNA 1: B1 RNA 1
# RNA 2: B1 RNA 2 with C40G, U41A, G42A, A43U, U44A, C45G, C46G
# B25: target 1 insA 3' of 17,insU 3' of 13 (mixed)
# RNA 1: B1 RNA 1
# RNA 2: B4 RNA 2 with U32A, A33U, U34A, A35G, G36A, G41U, U42G
# B26: target 1 C4G,G13A (mixed)
# RNA 1: B1 RNA 1
# RNA 2: B1 RNA 2 with G39A, C40G, G42U, C48G
# B27: target 1 insU 3' of 13,insA 3' of 11 (mixed)
# RNA 1: B1 RNA 1
# RNA 2: B5 RNA 2 with G40U, U41G, G44U, U45A, C46U, G48C, U49G
# B28: target 1 G12U,A14U (mixed)
# RNA 1: B1 RNA 1
# RNA 2: B1 RNA 2 with A38U, C40U, G42U
# B29: target 1 insC 3' of 5,insA 3' of 3 (mixed)
# RNA 1: B1 RNA 1
# RNA 2: B5 RNA 2 with G44U, U45C, C47G, G48C, U49C, C50U, U51A
# B30: target 1 insC 3' of 14,insC 3' of 13 (mixed)
# RNA 1: B1 RNA 1
# RNA 2: B5 RNA 2 with G39C, U41C, U42G, A43U, G44U, U45A, C46U, G48C, U49G
# B31: target 1 U11C,G13C (mixed)
# RNA 1: B1 RNA 1
# RNA 2: B1 RNA 2 with G39C, C40G, U41C, G42U
# B32: target 1 U3G,C4G (mixed)
# RNA 1: B1 RNA 1
# RNA 2: B1 RNA 2 with C40G, G42U, C48G, U49G
# B33: target 1 C4U,G12C (mixed)
# RNA 1: B1 RNA 1
# RNA 2: B1 RNA 2 with G42U, C48U
# B34: target 1 insC 3' of 12,insA 3' of 3 (mixed)
# RNA 1: B1 RNA 1
# RNA 2: B5 RNA 2 with U41C, A43U, G44A, U49C, C50U, U51A
# Molecular target: T1, EsCas13d, nuclease-dead
# Assay: crRNA (strand 1, pre-loaded); Mg2+; 40 mM Tris-HCl pH 7.5, 150 mM NaCl, 6 mM MgCl2, 1 mM DTT, 0.1% Tween-20, 0.2 mg/ml BSA; 25 C; 10 min per concentration, then washed
# Details: tags: His6-TwinStrep-SUMO cleaved; N-terminal SNAP kept (SNAP-Surface 488); label: 3' end held by stalled T7 RNA polymerase
row,Binder,Kd [nM]
1,B1,22.7 ± 1.3
2,B2,49 ± 8
3,B3,8.34 ± 0.26
4,B4,21.5 ± 1.3
5,B5,14.4 ± 0.9
6,B6,22.4 ± 1.5
7,B7,27.3 ± 2.3
8,B8,11.9 ± 2.4
9,B9,8.7 ± 0.5
10,B10,14.3 ± 0.7
11,B11,36 ± 4
12,B12,47 ± 4
13,B13,53 ± 25
14,B14,9.1 ± 1
15,B15,6.7 ± 1.3
16,B16,8.6 ± 0.8
17,B17,12 ± 0.9

row,Binder,Kd [nM]
1,B18,14.4 ± 1.4
2,B19,21.3 ± 1.3
3,B20,12.7 ± 1.2
4,B21,6.4 ± 0.8
5,B22,42 ± 7
6,B23,10 ± 0.9
7,B24,14.5 ± 1.2
8,B25,22 ± 4
9,B26,7.3 ± 0.9
10,B27,12.3 ± 1.4
11,B28,25 ± 9
12,B29,30 ± 4
13,B30,53 ± 9
14,B31,62 ± 23
15,B32,5.2 ± 0.4
16,B33,22.4 ± 3.3
17,B34,9.3 ± 0.8
